Measured values as given in the DeepSol protein solubility set.

Test: soluble on expression in E. coli; label from the status in PepcDB or PDB records

Row | Sequence | soluble on expression in E. coli
1 | MEIKLEEILKKQPLYSGKAKSIYEIDDDKVLIEFRDDITAGNGAKHDVKQGKGYLNALISSKLFEALEENGVKTHYIKYIEPRYMIAKKVEIIPIEVIVRNIAAGSLCRRYPFEEGKELPFPIVQFDYKNDEYGDPMLNEDIAVALGLATREELNKIKEIALKVNEVLKKLFDEKGIILVDFKIEIGKDREGNLLVADEISPDTMRLWDKETRDVLDKDVFRKDLGDVIAKYRIVAERLGLL | soluble
2 | MIPTERRQIILDMVAEKGIVSIAELTERMHVSHMTIRRDLQKLEQQGAVIQVSGGVQSSTRVAHEPSHQIKTELATPQKAAIGKLAASLVQPESCIYLDAGTTTLAIARQLVTMNKLTVVTNDFVIADYLMDNSNCTIIHTGGAVCRENRSCVGEAAATLLRGLMIDQAFISASSWSVRGISTPAEDKVTVKRAVASASRQKILVCDATKYGQVATWLALPLAEFNQIVTDDGLPESAIRALAKVDISLLMAKQLEHHHHHH | soluble
3 | MGSDKIHHHHHHLPALRLLAGPTAYEQLEANGLDQSLFTQLFAASGGPKWLAIAGLDKYLFSEFFQDREDPLYTMGASSGAWRLACMAQQDPLAAYERLEHFYIHQNYEKKPTREQVSAQVLQIVDGILGEQQGADIIANPLIRHHMVACRARHLNRIHAKFGLMMGLSMAAVSNVVNRKSLGWHFERVILSHKDAASPFRRLKDLPTKHVELTQDNIRHGLLATGSIPLLLDPVKDLQGSPKGHYYDGGITDYHFDMPLPAATGLSLYPHFYPYMSPGWFDKSLLWRKAKANYHNGLILAPSKQFIASLPFSKIPDREDFKNLDTKSRITYWQQSVQQSQVLADEFAEIVASGTIMDRIERL | not soluble
4 | MTEDNIAPITSVKRLVTDKCTYKDNELLTKYSYENAVVTKTASGRFDVTPTVQDYVFKLDFEKKPEKLGIMLIGLGGNNGSTLVASVLANKHNVEFQTKAKGVKQPNYFGSMTQCSTLKLGIDAEGNDVYAPFNSLLPMVSPKHFVVSGWDINNADLYEAMQRSQVLEYDLQQRLKAKMSLVKPLPSIYYPDFIAANQDERANQCINLDEKGNVTTRGKWTHLQRIRRDIQNFKEENALDKVIVLWTANTERYVEVSPGVNDTMENLLQSIKNDHEEIAPSTIFAAASILEGVPYINGSPQNTFVPGLVQLAEHEGTFIAGDDLKSGQTKLKSVLAQFLVDAGIKPVSIASYNHLGNNDGYNLSAPKQFRSKEISKSSVIDDIIASNDILYNDKLGKKVDHCIVIKYMKPVGDSKVAMDEYYSELMLGGHNRISIHNVCEDSLLATALIIDLLVMTEFCTRVSYKKVDPVKEDAGKFENFYPVLTFLSYWLKAPLTRPGFHPVNGLNKQRTALENFLRLLIGLPSQNELRFEERLL | soluble
5 | MAHHHHHHMESQKERGNAAYREKRYRDAINAYTAAIELDLTNVRMVATLRANQAAAKMELKEYSSALLDCEFAIQNGVNSAKLYARRARIHEALNNYDDALRDIQKASEMDGSYQREFQRTKASSKKAMRKDYYKILDLPPNESDDAQIKRAYKKACLRWHPDKWANAGPEEKTHAEKMFKDVGEAFSILSDAKKKRMYDNGMIDNAVEGAGESGFSGFPGQDEALMEMMNRMFFTGGGMSGGFGFNGFPQGRRQQYQQSYTFQFF | not soluble
6 | MNEEGGYLGAMTYQCLYSPVMEKIKQQHRDDPRASLALNKLHTALTTCEQASPSFLYDFTKVLLDDSELSVNLQESYLRMHDTSPTNDLIVSGYEQNADYKELTKRAIELRRVLSRVPEEMSDRHAFLETIKLIASSIKKLLEAINAVYRIVPLTAQPAVEKRKREFVHYSKRFSNTLKTYFKDQNANQVSVSANQLVFQTTMIVRTINEKLRRG | not soluble
7 | MAYPVSPIAGRRSNWRSFAASLNLEDGPASSDSTSSPSEQTSDGGEVYGDPSENLNSRKLKSDELKSLLADSERSKLLKKLSEANQYNRFLKRQLQMKDNDVVKFKSELAVMELELQALVALAEEIANFDVPSGSRKINGKYIQSHLLTRLEAVHDKVMEQIKDVDSLKHQEISVFWVGIAENVQIMGSFDGWSQGEAMSMEYSGYQARFSATLNLRPGRYEIKFLVDGEWRLSLEYPIDGEGSMQNNILVVN | not soluble
8 | MKFDVIIIGGSYAGLSAALQLGRARKNILLVDAGERRNRFASHSHGFLGQDGKAPGEIIAEARRQIERYPTIHWVEGRVTDAKGSFGEFIVEIDGGRRETAGRLILAMGVTDELPEIAGLRERWGSAVFHCPYCHGYELDQGKIGVIAASPMAIHHALMLPDWGETTFFTNGIVEPDADQHALLAARGVRVETTRIREIAGHADVVLADGRSIALAGLFTQPKLRITVDWIEKLGCAVEEGPMGSTIVTDPMKQTTARGIFACGDVARPAGSVALAVGDGAMAGAAAHRSILFPEMR | soluble
